Patent US20190367619A1 (ARGENX, published 2019)

Key:
[1] = target: T1, human galectin-10-His (recombinant human galectin-10 with TEV-cleavable N-terminal His-tag) (human); experiment: BLI tandem on galectin-10-His; competitor: saturating 4E08 mIgG1 (10 ug/mL)
T1 construct: SEC-MALLS: dimer in solution; also called Gal10-His; humanGal10-His
T1 chain: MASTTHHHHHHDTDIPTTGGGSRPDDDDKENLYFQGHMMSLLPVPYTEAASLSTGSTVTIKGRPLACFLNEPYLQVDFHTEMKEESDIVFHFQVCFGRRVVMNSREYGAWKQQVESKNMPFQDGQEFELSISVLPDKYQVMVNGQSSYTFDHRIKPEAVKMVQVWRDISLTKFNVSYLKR
Summary of the method: (§1)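 Read-out is the BLI wavelength shift (nm) from the competitor antibody, measured after the captured antigen has already been saturated by another antibody. Absence of shift means both antibodies share the binding site.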

[2] = target: T1, human galectin-10-His (recombinant …); experiment: BLI tandem on galectin-10-His; competitor: saturating 1D11 mIgG1 (10 ug/mL)
Summary of the method: as §1

[3] = target: T1, human galectin-10-His (recombinant …); experiment: BLI tandem on galectin-10-His; competitor: saturating 6F06 mIgG1 (10 ug/mL)
Summary of the method: as §1

[4] = target: T1, human galectin-10-His (recombinant …); experiment: ELISA binding (summary table), mouse IgG1
[5] = target: T1, human galectin-10-His (recombinant …); experiment: BLI tandem on galectin-10-His; competitor: saturating 1C09 mIgG1 (10 ug/mL)
Summary of the method: as §1

[6] = target: T1, human galectin-10-His (recombinant …); experiment: BLI tandem on galectin-10-His; competitor: saturating 6E10 mIgG1 (10 ug/mL)
Summary of the method: as §1

[7] = target: T1, human galectin-10-His (recombinant …); experiment: BLI tandem on galectin-10-His; competitor: saturating 2F09 mIgG1 (10 ug/mL)
Summary of the method: as §1

[8] = target: T1, human galectin-10-His (recombinant …); experiment: BLI tandem on galectin-10-His; competitor: saturating 6B06 mIgG1 (10 ug/mL)
Summary of the method: as §1

[9] = target: T2, TEV-cleaved wild-type recombinant human galectin-10 (soluble, in Fab complexes, or as recombinant galectin-10 … (human, UniProt Q05315 1-142)); experiment: cell-based or functional assay
T2 sequence: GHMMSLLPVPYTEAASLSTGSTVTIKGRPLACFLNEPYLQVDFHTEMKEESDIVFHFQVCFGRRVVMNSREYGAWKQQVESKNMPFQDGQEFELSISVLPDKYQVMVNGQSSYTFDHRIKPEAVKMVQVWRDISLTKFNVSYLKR

[10] = target: T1, human galectin-10-His (recombinant …); experiment: BLI tandem on galectin-10-His; competitor: saturating 6A05 mIgG1 (10 ug/mL)
Summary of the method: as §1

binding signal (nm) [1]: 0 nm
binding signal (nm) [2]: 0.06 nm
binding signal (nm) [3]: 0.03 nm
EC50 [4]: 100 pM
binding signal (nm) [5]: 0.01 nm
binding signal (nm) [6]: -0.01 nm
binding signal (nm) [7]: 0.02 nm
binding signal (nm) [8]: 0 nm
100% Inhibition of CLC formation (Conc uM) [9]: 0.34 µM
100% Solubilization of CLC (Conc uM) [9]: 7.86 µM
binding signal (nm) [10]: 0.06 nm
B1: 1D11 mouse IgG1 (antibody, V domains shown)
VH: QVQLVESGGGLVQPGGSLRLSCAASGFTFDDYAMSWVRQAPGKGLEWVSGISWNGGSTYYAESMKGRFTISRDNAKNTLYLQMNSLKSEDTAVYYCAKDRNLGYRLGYPYDYWGQGTQVTVSS
VL: QSVLTQPPSVSGSPGETVTISCAGTSSDVGYGNYVSWYQQLPGMAPRLLIYEVNKRASGITDRFSGSKSGNTASLTISGLQSEDEGDYYCASYRSSNNAVFGGGTHLTVL
notes: VH on mouse IgG1 heavy chain constant domains (CH1-CH2-CH3), VL on mouse lambda light chain constant domain; also called 1D011; 1D11 mIgG1
